Laboratory results taken from the supplement of paper PMC12042874.
± gives the uncertainty stated by the source.

Experiment: amyloid nucleation score (Sup35N fusion, yeast selection) (log enrichment); library NNK2; higher = more nucleation; inactive = no reads after selection
Outline: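 Peptides of 20 random codons fused to Sup35N were expressed in psi-negative yeast, induced 24 hours with 100 μM copper sulfate, then grown 7 days at 30°C on medium lacking adenine and uracil. Input and output plasmid inserts were Illumina-sequenced. Nucleation score is the DiMSum log enrichment of output over input reads, centred on the mode score of non-aggregating sequences, excluding sequences with under 100 input reads. Random libraries had three technical output replicates.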

Row | Substance | amyloid nucleation score
1 | RMDVISEKFVWANESNCGVA | 0.362 ± 0.25
2 | VIFSGFFYISPTADPHDSFI | inactive
3 | VFWNIAFNSYMQRSCYIVVF | 2.12 ± 0.14
4 | AHLRITFSMSMNMQLFMVLR | 0.587 ± 0.48
5 | MPGQFHFVMNFRINRNYIRS | 5.92 ± 0.067
6 | QFDAWAYMDRTPHGDSYRAA | 0.237 ± 0.65
7 | VEMKGRWLIVNRRLGVSPQA | 0.097 ± 0.35
8 | QWMRSWNDTGRAES | 2.13 ± 0.1
9 | FRLFVKNKGRELICDLWVCT | -0.024 ± 1
10 | SNFLVYS | -0.636 ± 0.61
11 | NKGSPCISCFVENDLYYLKY | -0.707 ± 0.42
12 | NLCHSNKCLNSRFSITHWV | 0.246 ± 0.8
13 | NSICSNLDDSCEAKRTSRFH | -0.113 ± 0.65
14 | CRITNSNSL | -0.448 ± 0.28
15 | ENDMLTYYSLLFYWIKIVSY | inactive
16 | LLIFNGLYGWAIGDGLPSSW | 5.09 ± 0.051
17 | IADIVQGSGVAT | -0.178 ± 0.26
18 | GTRGVVLISMSWRVDLHWKP | inactive
19 | NVVFRFVVEYNLWWLSVPDY | -0.578 ± 1.1
20 | FVLRIDNC | 0.735 ± 0.39
21 | NTVRRVCFAVVEMSASIMDG | 0.738 ± 0.42
22 | RMCMR | 0.017 ± 0.34

Row | Substance | amyloid nucleation score
23 | FEGLWQTFTMSLQGNLKYIF | -0.4 ± 0.74
24 | DDSFGVAVMKVWEMRGWSAL | 1.16 ± 0.27
25 | ESFLDINGVLRLRRLYVQSQ | 0.587 ± 0.56
26 | YLYILVRNGGASSVC | -0.635 ± 0.4
27 | SHISDVSKD | 0.679 ± 0.26
28 | NMTVFT | -0.202 ± 0.22
29 | HTITNTL | -0.06 ± 1.1
30 | KVSWEDSFLFLCQCRRDCTL | 8.707 ± 0.039
31 | LRPLL | -0.912 ± 0.93
32 | RLFRFPNVLHDLICNMYICA | 6.024 ± 0.049
33 | EWCQFIR | -0.199 ± 0.19
34 | TFRAMAFVIFAGWLIRYDRR | inactive
35 | VVRSRW | 0.372 ± 0.42
36 | QCFIWSHRVIVGFHGLGLSA | -0.02 ± 0.79
37 | SPCMCGYITINSLRPLLTFS | 5.797 ± 0.03
38 | YILMHGSHM | 3.73 ± 0.071
39 | LRAVWATVIVSVAMSVSCPK | 5.07 ± 0.07
40 | RVFNLLYVLNWNAKSLSWMS | 4.32 ± 0.11
41 | NLFFVGPCELSRWLGFSNLQ | 5.874 ± 0.032
42 | NVLWVDSSLFRNLRPTSERE | 0.276 ± 1
43 | MNGVLFMCFIH | 3.86 ± 0.085
44 | FIDDSDFKYSYSAQFVCLID | 4.91 ± 0.1

Row | Substance | amyloid nucleation score
45 | NYSDWRVSTEIRSMGRYRPH | 0.069 ± 0.65
46 | LIQVAFQLYATVQVTVKTDV | 2.09 ± 0.26
47 | SFRFMFEVLSVVTYSTRGCA | 2.92 ± 0.067
48 | GYVRRSIGYSLLSVVS | -0.121 ± 0.46
49 | SIGIRIEVLHAYLQTVISNA | -0.639 ± 1
50 | SKLFESLVTCLIKGLHVVNN | 0.479 ± 0.74
51 | QYSYGWHLRTIRIRRTCTGS | 1.15 ± 0.31
52 | KINIKGFSSYAGRYHTRKIW | inactive
53 | KTIVSYV | inactive
54 | SSYGWVMLMEDFW | -1.23 ± 0.62
55 | VLEKRFIRL | -0.785 ± 0.46
56 | IKVDSAWETIAVVM | 0.246 ± 0.33
57 | PYSVTEHICGIWLVWCIVGS | -0.418 ± 1.1
58 | SLLDWYKSRQSLMGAMLHNC | -1.12 ± 0.44
59 | LCWFSNRSRLEEVS | inactive
60 | SPFTTSRDFMHRTPLLCDTC | 1.32 ± 0.33
61 | KSLNDDVKLKNKGSSPSAPW | inactive
62 | KCMQLAAFTRLLWTGPSARG | 1.85 ± 0.1
63 | VGTWATFYVLTCKGEFDPGL | 7.83 ± 0.083
64 | FYLYNFMCEVLYMESRRVMS | inactive
65 | LLYQLRNMVILEHFMMIDFM | inactive
66 | SQHSVARIANGLLTSGTMVL | 0.875 ± 0.36

Row | Substance | amyloid nucleation score
67 | FASSEVYTGVSYIIHVSVYS | -0.714 ± 1
68 | HIFFTDKFGGYVFLYPDFVA | inactive
69 | MIWGVT | 1.01 ± 0.4
70 | LETGNRRHTEYLCYDVWVIL | 0.394 ± 0.39
71 | HAYSWNNRPVGVVRSRSRLF | -0.597 ± 0.34
72 | LHSNCRV | 0.343 ± 0.8
73 | SLCLRRCMKNKSKQMTMVWR | -0.247 ± 0.53
74 | RCVTERFPDM | 0.408 ± 0.5
75 | YMHCNNCSNVHVWAKKKCRE | 8.432 ± 0.043
76 | KSSVELWTFERA | 1.14 ± 0.33
77 | YPEPKQWVSVSALHLVRGLR | 0.995 ± 0.2
78 | RTVYRFNVRI | 0.291 ± 0.27
79 | SIRSS | inactive
80 | LDRSRTKSWLGDFWG | -0.074 ± 0.46
81 | SCRLLDSFDPMSRGKSSQRR | -0.003 ± 1.1
82 | LENWSNMGENCSTVDRPNLF | -0.4 ± 1.1
83 | RHGVMLGAVGVGSNDGSFLS | 2.29 ± 0.28
84 | LMLGSWQDKMPSLLWLDLCV | 0.86 ± 0.52
85 | CGLWASNSSTFRDFESNESN | -0.51 ± 0.63
86 | EICLDAITVVPLHGSIRLTV | 0.764 ± 0.25
